The record followed here is patent US20070065875A1 (INNATE PHARMA S A, published 2007).

For experiment [1], the target named is T1, NTB-A (NK-T-B-antigen) (human, UniProt Q96DU3 22-332).
T1 construct: Full-length surface glycoprotein; Native cells may also carry the allelic isoform with an extra Ala at position 266; also called KALI cDNA product; MA127-reactive molecule
T1 sequence: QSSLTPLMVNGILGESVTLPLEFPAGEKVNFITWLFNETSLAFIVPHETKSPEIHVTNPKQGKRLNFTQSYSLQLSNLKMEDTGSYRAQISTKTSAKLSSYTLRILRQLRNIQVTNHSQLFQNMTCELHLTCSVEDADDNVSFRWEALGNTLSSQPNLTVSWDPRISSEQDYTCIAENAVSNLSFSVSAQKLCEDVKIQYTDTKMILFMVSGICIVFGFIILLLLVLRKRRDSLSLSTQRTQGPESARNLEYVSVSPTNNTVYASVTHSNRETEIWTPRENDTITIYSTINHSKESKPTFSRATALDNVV
The experiment in a line: NTB-A immunoprecipitates from 1% digitonin NK cell lysates probed by western blot. As to the method:
(§1) NK cells (10⁸) were stimulated or not with 100 M sodium pervanadate (28). 1% NP-40 or 1% digitonin cell lysates were immunoprecipitated with Sepharose-PA (Amersham Pharmacia Biotech)-coupled mAbs. Samples were analyzed in discontinuous SDS-PAGE, transferred to Immobilon P (Millipore), and probed with: (a) anti-phosphotyrosine mAb (PY20-HRPO; Transduction Laboratories); (b) anti-SHP-2 or anti-SHP-1 mAbs (PTP1D and PTP1C, respectively; Transduction Laboratories) followed by rabbit anti-mouse-HRPO (Dako); (c) anti-SH2D1A rabbit anti-serum (produced by Eurogentec S.A; reference 28) followed by donkey anti-rabbit-HRPO (Amersham Pharmacia Biotech). The Renaissance Chemiluminescence Kit (NEN Life Science Products) was used for detection. Putative NTB-A association with known signal transducing molecules was analyzed by probing NTB-A immunoprecipitates, obtained from 1% digitonin cell lysates, with anti-FcRI (provided by E. Vivier, Marseille, France), anti-DAP12 (SI-28; reference 10), and anti-LAT (UBI; Upstate Biotechnology) antisera or with anti-CD3mAb (TIA/2; Immunotech).

Experiment [2] addresses T1, NTB-A (NK-T-B-antigen). Nature of the experiment: NTB-A immunoprecipitates from 1% digitonin NK cell lysates probed with anti-LAT antiserum. As to the method:
as §1

B1: FcεRIγ (other, human, UniProt P30273 19-86, looked up)
chain: LGEPQLCYILDAILFLYGIVLTLLYCRLKIQVRKAAITSYEKSDGVYTGLSTRNQETYETLKHEKPPQ
Take B1: the binding result with NTB-A (NK-T-B-antigen) [1] is given as “no binding”.

B2: KARAP/DAP12 (other, human, UniProt O43914 22-113, looked up)
chain: LRPVQAQAQSDCSCSTVSPGVLAGIVMGDLVLTVLIALAVYFLGRLVPRGRGAAEAATRKQRITETESPYQELQGQRSDVYSDLNTQRPYYK
Take B2: the binding result in the experiment with NTB-A (NK-T-B-antigen) [1] is reported as “no binding”.

B3: linker for activation of T cells (LAT) (other, human, UniProt O43561 1-262, looked up)
chain: MEEAILVPCVLGLLLLPILAMLMALCVHCHRLPGSYDSTSSDSLYPRGIQFKRPHTVAPWPPAYPPVTSYPPLSQPDLLPIPRSPQPLGGSHRTPSSRRDSDGANSVASYENEGASGIRGAQAGWGVWGPSWTRLTPVSLPPEPACEDADEDEDDYHNPGYLVVLPDSTPATSTAAPSAPALSTPGIRDSAFSMESIDDYVNVPESGESAEASLDGSREYVNVSQELHPGAAKTEPAALSSQEAEEVEEEGAPDYENLQELN
Take B3: the binding result with NTB-A (NK-T-B-antigen) [2] is “no binding”.
